Like-named read-outs stand apart in the source and are kept apart here.
B1: A-93 (VHH)
VHH: QVQLQESGGGLVQAGGSLRLSCAASRRLYSSYSLGWFRQAPGKEREFVAALGWIANGTYYADSAKGRFTISRGNAMVFLQMNSLKSEDTAVYYCAARLGSVREAPREYTYWGQGTQVTVSS
B2: VHH A-28 (VHH)
VHH: QVQLQDSGGGLVQAGDSLRLSCTYSGRSFSNHAMGWFRQAPGKERGFVAAIGWINGGTYYADSVKGRFIISRDNDKNTLYLQMNNLKPEDTAVYYCAARNALRSISFNLSEYAYWGQGTQVTVSS
notes: source: E. coli BL21-AI, purified (urea lysis, Ni-NTA)

Experiments:
[1] = target: T1, purified recombinant 16 kDa heat shock protein of M. tuberculosis (Mycobacterium tuberculosis, UniProt P9WMK1)
T1 sequence (P9WMK1 whole entry): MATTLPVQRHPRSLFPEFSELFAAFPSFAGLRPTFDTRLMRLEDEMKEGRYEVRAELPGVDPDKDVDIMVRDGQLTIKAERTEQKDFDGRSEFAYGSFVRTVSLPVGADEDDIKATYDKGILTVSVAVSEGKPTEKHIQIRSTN

[2] = target: 16 kDa heat shock protein of M. tuberculosis, in M. tuberculosis lysate (Mycobacterium tuberculosis (lysates of …, UniProt P9WMK1))
Sequence of 16 kDa heat shock protein of M. tuberculosis, in M. tuberculosis lysate (Mycobacterium tuberculosis (P9WMK1 whole entry): as above

[3] = target: T1, purified recombinant 16 kDa heat shock …; assay: far-Western, overlay or dot blot; settings: both partners purified

| Binder | binding result [1] | binding result [2] | binding result [3] |
| --- | --- | --- | --- |
| B1 | binds | binds | – |
| B2 | – | – | binds |

Source: paper PMC3202562, “A Broad Set of Different Llama Antibodies Specific for a 16 kDa Heat Shock Protein of Mycobacterium tuberculosis” (PLoS ONE, 2011)
